For this test, the target named is PARP1 (endogenous, Hela cell lysate) (human) (UniProt P09874). The test is described as follows: scanning densitometry of PARP1 immunoprecipitates from Hela cells (FIG. 4B).
Sequence of PARP1 (endogenous, Hela cell lysate) (human) (P09874 2-1014 limits assumed): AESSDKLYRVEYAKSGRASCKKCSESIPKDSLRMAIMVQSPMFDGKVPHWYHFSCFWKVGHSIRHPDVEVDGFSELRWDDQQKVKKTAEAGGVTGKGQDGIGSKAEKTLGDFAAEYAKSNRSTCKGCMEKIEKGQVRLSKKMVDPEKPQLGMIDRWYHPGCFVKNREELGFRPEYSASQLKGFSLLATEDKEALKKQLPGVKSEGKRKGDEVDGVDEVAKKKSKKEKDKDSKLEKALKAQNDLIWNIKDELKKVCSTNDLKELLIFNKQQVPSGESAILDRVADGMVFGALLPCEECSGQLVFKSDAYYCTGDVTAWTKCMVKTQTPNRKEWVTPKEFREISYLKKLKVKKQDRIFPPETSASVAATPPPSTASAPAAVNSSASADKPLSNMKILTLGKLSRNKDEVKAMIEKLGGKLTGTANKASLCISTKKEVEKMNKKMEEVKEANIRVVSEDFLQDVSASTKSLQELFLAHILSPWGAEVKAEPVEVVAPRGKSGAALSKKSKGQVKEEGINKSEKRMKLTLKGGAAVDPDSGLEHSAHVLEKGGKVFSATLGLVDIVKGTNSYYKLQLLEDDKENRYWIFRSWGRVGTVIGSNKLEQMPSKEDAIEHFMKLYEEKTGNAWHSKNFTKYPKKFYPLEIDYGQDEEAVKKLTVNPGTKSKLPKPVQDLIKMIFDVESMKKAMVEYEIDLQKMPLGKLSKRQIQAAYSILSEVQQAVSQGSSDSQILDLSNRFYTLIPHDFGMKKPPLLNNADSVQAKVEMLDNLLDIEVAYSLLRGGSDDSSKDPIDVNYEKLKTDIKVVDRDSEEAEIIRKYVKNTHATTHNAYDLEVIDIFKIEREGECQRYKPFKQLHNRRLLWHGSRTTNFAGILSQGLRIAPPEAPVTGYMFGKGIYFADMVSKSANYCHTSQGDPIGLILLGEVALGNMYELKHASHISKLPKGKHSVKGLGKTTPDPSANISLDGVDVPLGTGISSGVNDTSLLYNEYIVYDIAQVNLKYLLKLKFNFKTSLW

Consider “BAL1 (endogenous, Hela cell lysate) (from UniProt Q8IXQ6 1-854)”, for which the fold increase co-immunoprecipitated with PARP1 (Dox-treated versus untreated cells) turned out to be 4.8 fold.

Values taken from patent US20150020221A1.
